Numbering of substitutions follows the chain as printed. Each block holds one binder with its values, some of them ahead of it. Bridges are numbered along the chain shown (N, C = ends).
Columns and labels:
[1] = target: T1, extracellular domain of activin receptor type IIB (ActRIIBecd), biotinylated (Homo sapiens (Human), UniProt Q13705 27-117, amino-biotinylated with amine-PEG3-Biotin); assay: BIAcore SPR as Example 5 (method not restated); SD ±1.74 nM
T1 construct: immobilised on a streptavidin-coated sensor chip; also called biotinylated ActRIIBecd; extracellular domain of ActRIIB
T1 sequence: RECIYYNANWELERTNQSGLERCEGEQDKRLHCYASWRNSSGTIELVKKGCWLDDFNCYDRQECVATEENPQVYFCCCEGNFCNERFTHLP
Description: (§1) Biosensor experiments. In one embodiment, experiments were performed on a BIAcore™ T100/T200 instrument (Pharmacia Biosensor AB) in the multichannel mode (serial flow path involving flow cells 1+2+3+4). Flow rate was 10 μl/min; temperature was 25° C.; and data were recorded at 2.5 points/s. All four segments of a sensor chip CMS were coated with streptavidin (Sigma) to a density of 2000 pg/mm² (2000 resonance units) by the aminocoupling procedure. ActRIIBecd (10 mg) and amine-PEG3-Biotin (10 mg, Pierce, Rockford, Ill.) were dissolved in 200 μl H₂O and 10 mg NaCNBH₃ was added to prepare biotinylated ActRIIBecd. The reaction mixture was heated at 70° C. for 24 h, after that a further 10 mg NaCNBH₃ was added and the reaction was heated at 70° C. for another 24 h. After cooling to room temperature, the mixture was desalted with the spin column (3,000 molecular weight cut off (MWCO)). […] Sensograms were recorded during flow of the analyte (the ActRIIBecd-associated polypeptides (i.e., domains) as previously described) first through flow cell 1 (control) then through flow cell 2 (biotinylated ActRIIBecd). […] The sensograms obtained at 1.11, 3.33, 10, 30, and 90 nM analyte were evaluated for equilibrium binding, association rate, and dissociation rate by using the programs supplied with the instrument (BIA evaluation 2.1; Software Handbook. 1995; Pharmacia Biosensor AB).

[2] = target: T1, extracellular domain of activin …; assay: Mean KD column of Table 5; method not restated (BIAcore as Example 5); species also listed in Table 4
Description: Biosensor experiments. In one embodiment, experiments were performed on a BIAcore™ T100/T200 instrument (Pharmacia Biosensor AB) in the multichannel mode (serial flow path involving flow cells 1+2+3+4). Flow rate was 10 μl/min; temperature was 25° C.; and data were recorded at 2.5 points/s. All four segments of a sensor chip CMS were coated with streptavidin (Sigma) to a density of 2000 pg/mm² (2000 resonance units) by the aminocoupling procedure. ActRIIBecd (10 mg) and amine-PEG3-Biotin (10 mg, Pierce, Rockford, Ill.) were dissolved in 200 μl H₂O and 10 mg NaCNBH₃ was added to prepare biotinylated ActRIIBecd. The reaction mixture was heated at 70° C. for 24 h, after that a further 10 mg NaCNBH₃ was added and the reaction was heated at 70° C. for another 24 h. After cooling to room temperature, the mixture was desalted with the spin column (3,000 molecular weight cut off (MWCO)). Biotinylated ActRIIBecd was collected, freeze-dried and used for streptavidin (SA) chip preparation. Amino-biotinylated ActRIIBecd was then immobilized independently on flow cells 2-4 for 10 minutes at a flow rate of 5 μL/min and a concentration of 20 μM in 10 mM sodium acetate, pH 4.0, at a density of 50-250 resonance units (RU). The stored polypeptides were dissolved in glycine buffer (2.5 g of glycine, 0.5 g of sucrose, 370 mg of L-glutamate, 10 mg of sodium chloride, and 10 mg of Tween 80 in 100 mL water, pH 4.5) to prepare 10 mg/mL solution and then diluted with previous glycine buffer to prepare analytes with various concentration. Sensograms were recorded during flow of the analyte (the ActRIIBecd-associated polypeptides (i.e., domains) as previously described) first through flow cell 1 (control) then through flow cell 2 (biotinylated ActRIIBecd). The sensogram obtained for flow cell 1 was subtracted from the sensogram obtained for flow cell 2. The sensograms obtained at 1.11, 3.33, 10, 30, and 90 nM analyte were evaluated for equilibrium binding, association rate, and dissociation rate by using the programs supplied with the instrument (BIA evaluation 2.1; Software Handbook. 1995; Pharmacia Biosensor AB).

[3] = target: T1, extracellular domain of activin …; assay: BIAcore SPR as Example 5 (method not restated); SD ±2.10 nM
Description: as §1

[4] = target: T1, extracellular domain of activin …; assay: BIAcore SPR as Example 5 (method not restated); SD ±2.45 nM
Description: as §1

[5] = target: T1, extracellular domain of activin …; assay: BIAcore SPR as Example 5 (method not restated); SD ±1.72 nM
Description: as §1

[6] = target: T1, extracellular domain of activin …; assay: BIAcore SPR as Example 5 (method not restated); SD ±3.15 nM
Description: as §1

[7] = target: T1, extracellular domain of activin …; assay: BIAcore SPR as Example 5 (method not restated); SD ±1.35 nM
Description: as §1

[8] = target: T1, extracellular domain of activin …; assay: BIAcore SPR as Example 5 (method not restated); SD ±1.77 nM
Description: as §1

[9] = target: T1, extracellular domain of activin …; assay: BIAcore SPR as Example 5 (method not restated); SD ±1.37 nM
Description: as §1

[10] = target: T1, extracellular domain of activin …; assay: BIAcore SPR, biotinylated ActRIIBecd on chip; SD ±14.11 nM
Description: as §1

[11] = target: T1, extracellular domain of activin …; assay: BIAcore SPR as Example 5 (method not restated); SD ±1.07 nM
Description: as §1

[12] = target: T1, extracellular domain of activin …; assay: BIAcore SPR, biotinylated ActRIIBecd on chip; SD ±16.41 nM
Description: as §1

Kd [1]: 18.5 nM
Kd [2]: 18.5 nM
B1: SEQ ID NO: 248, cysteine pairs C67-C71^a, C8-C41^a, C9-C43^a (designed binder)
chain: NSKDPKACCVPTELSAPSPLYLDENEKPVLKNYQDMVVHGCGCRVDFKDVGWNDHAVAPPGYHAFYCHGECPFPLADHLNSDNHAIVQTKVNSV
modifications: disulfides C67-C71 (intra), C8-C41 (intra), C9-C43 (intra)

Kd [2]: 16.2 nM
Kd [3]: 16.2 nM
B2: SEQ ID NO: 236, cysteine pairs C59-C59^b, C8-C41^a, C9-C43^a (designed binder)
chain: NSKDPKACCVPTELSAPSPLYLDENEKPVLKNYQDMVVHGCGCRGQAKRKGYKRLKSSCKRHPLY
modifications: disulfide 8-41, 9-43; also: homodimer via intermolecular C59-C59 disulfide
notes: homodimer by intermolecular disulfide

Kd [2]: 32.7 nM
Kd [4]: 32.7 nM
B3: SEQ ID NO: 300, cysteine pairs C23-C79^a (designed binder)
chain: VDFKDVGWNDHAVAPPGYHAFYCHGECPFPLADHLNSDNHAIVQTKVNSVGQAKRKGYKRLKSSCKRHPLYNSKDPKACCVPTELSAPSPLYLDENEKPVLKNYQDMVVHGCGCR
modifications: disulfides C23-C79 (intra)

Kd [5]: 6.44 nM
Kd [2]: 6.44 nM
B4: SEQ ID NO: 300, cysteine pairs C23-C27^a, C65-C65^b, C79-C112^b, C80-C114^b (designed binder)
chain: B3 chain
modifications: disulfides C23-C27 (intra), C65-C65 (inter), C79-C112 (inter), C80-C114 (inter)
notes: as for B2

Kd [2]: 31.8 nM
Kd [6]: 31.8 nM
B5: SEQ ID NO: 284, cysteine pairs C8-C9^a (designed binder)
chain: NSKIPKACCVPTELSAISMLYLDENEKVVLKNYQDMVVEGCGCRAQAKHKQRKRLKSSCKRHPLYVDFSDVGWNDWIVAPPGYHAFYCHGECPFPLADHLNSTNHAIVQTLVNSV
modifications: disulfides C8-C9 (intra)

Kd [2]: 6.88 nM
Kd [7]: 6.88 nM
B6: SEQ ID NO: 284, cysteine pairs C59-C59^b, C8-C43^a, C9-C41^a, C88-C92^a (designed binder)
chain: B5 chain
modifications: disulfides C59-C59 (inter), C8-C43 (intra), C9-C41 (intra), C88-C92 (intra)
notes: as for B2

Kd [2]: 8.13 nM
Kd [8]: 8.13 nM
B7: SEQ ID NO: 276, cysteine pairs C67-C71^a, C8-C41^b, C9-C43^b, C109-C109^b (designed binder)
chain: NSKIPKACCVPTELSAISMLYLDENEKVVLKNYQDMVVEGCGCRVDFSDVGWNDWIVAPPGYHAFYCHGECPFPLADHLNSTNHAIVQTLVNSVAQAKHKQRKRLKSSCKRHPLY
modifications: disulfides C67-C71 (intra), C8-C41 (inter), C9-C43 (inter), C109-C109 (inter)
notes: as for B2

Kd [2]: 48.7 nM
Kd [6]: 48.7 nM
B8: SEQ ID NO: 242, cysteine pairs C29-C30^a (designed binder)
chain: GQAKRKGYKRLKSSCKRHPLYNSKDPKACCVPTELSAPSPLYLDENEKPVLKNYQDMVVHGCGCR
modifications: disulfide 29-30

Kd [2]: 5.34 nM
Kd [9]: 5.34 nM
B9: SEQ ID NO: 316, cysteine pairs C67-C71^a, C8-C41^a, C9-C43^a, C109-C109^b (designed binder)
chain: NSKDPKACCVPTELSAPSPLYLDENEKPVLKNYQDMVVHGCGCRVDFKDVGWNDHAVAPPGYHAFYCHGECPFPLADHLNSDNHAIVQTKVNSVGQAKRKGYKRLKSSCKRHPLY
modifications: disulfides C67-C71 (intra), C8-C41 (intra), C9-C43 (intra), C109-C109 (inter)
notes: as for B2

Kd [1]: 17.6 nM
Kd [2]: 17.6 nM
B10: SEQ ID NO: 254, cysteine pairs C23-C27^a, C58-C91^a, C59-C93^a (designed binder)
chain: VDFKDVGWNDHAVAPPGYHAFYCHGECPFPLADHLNSDNHAIVQTKVNSVNSKDPKACCVPTELSAPSPLYLDENEKPVLKNYQDMVVHGCGCR
modifications: disulfides C23-C27 (intra), C58-C91 (intra), C59-C93 (intra)

Kd [10]: 39.5 nM
B11: Clone No. 15 domain (ActRIIBecd-associated polypeptide) (peptide)
chain: VDFSDVGWNDWIVAPPGYHAFYCHGECPFPLADHLNSTNHAIVQTLVNSV

Kd [5]: 21.5 nM
Kd [2]: 21.5 nM
B12: SEQ ID NO: 188, cysteine pairs C44-C48^a (designed binder)
chain: AQAKHKQRKRLKSSCKRHPLYVDFSDVGWNDWIVAPPGYHAFYCHGECPFPLADHLNSTNHAIVQTLVNSV
modifications: disulfides C44-C48 (intra)

Kd [2]: 5.1 nM
Kd [11]: 5.1 nM
B13: SEQ ID NO: 348, cysteine pairs C15-C15^b, C29-C62^a, C30-C64^a, C88-C92^a (designed binder)
chain: GQAKRKGYKRLKSSCKRHPLYNSKIPKACCVPTELSAISMLYLDENEKVVLKNYQDMVVEGCGCRVDFSDVGWNDWIVAPPGYHAFYCHGECPFPLADHLNSTNHAIVQTLVNSV
modifications: disulfides C15-C15 (inter), C29-C62 (intra), C30-C64 (intra), C88-C92 (intra)
notes: as for B2

Kd [12]: 61.7 nM
B14: Clone No. 30 domain (ActRIIBecd-associated polypeptide) (peptide)
chain: TALDGTRGAQGSGGGGGGGGGGGGGGGGGGGGAGRGHGRRGRSRCSRKSLHVDFKELG

Kd [2]: 6.19 nM
Kd [9]: 6.19 nM
B15: SEQ ID NO: 292, cysteine pairs C80-C114^a, C79-C112^a, C44-C48^a (designed binder)
chain: GQAKRKGYKRLKSSCKRHPLYVDFKDVGWNDHAVAPPGYHAFYCHGECPFPLADHLNSDNHAIVQTKVNSVNSKDPKACCVPTELSAPSPLYLDENEKPVLKNYQDMVVHGCGCR
modifications: disulfides C80-C114 (intra), C79-C112 (intra), C44-C48 (intra)

Kd [2]: 8.03 nM
Kd [4]: 8.03 nM
B16: SEQ ID NO: 268, cysteine pairs C23-C27^a, C65-C65^b, C79-C114^b, C80-C112^b (designed binder)
chain: VDFSDVGWNDWIVAPPGYHAFYCHGECPFPLADHLNSTNHAIVQTLVNSVAQAKHKQRKRLKSSCKRHPLYNSKIPKACCVPTELSAISMLYLDENEKVVLKNYQDMVVEGCGCR
modifications: disulfides C23-C27 (intra), C65-C65 (inter), C79-C114 (inter), C80-C112 (inter)
notes: as for B2

Kd [2]: 29.1 nM
Kd [7]: 29.1 nM
B17: SEQ ID NO: 260, cysteine pairs C79-C80^a (designed binder)
chain: AQAKHKQRKRLKSSCKRHPLYVDFSDVGWNDWIVAPPGYHAFYCHGECPFPLADHLNSTNHAIVQTLVNSVNSKIPKACCVPTELSAISMLYLDENEKVVLKNYQDMVVEGCGCR
modifications: disulfides C79-C80 (intra)

Kd [2]: 8.31 nM
Kd [11]: 8.31 nM
B18: SEQ ID NO: 260, cysteine pairs C80-C114^a, C79-C112^a, C44-C48^a (designed binder)
chain: B17 chain
modifications: disulfides C80-C114 (intra), C79-C112 (intra), C44-C48 (intra)

Kd [2]: 9.11 nM
Kd [8]: 9.11 nM
B19: SEQ ID NO: 324, cysteine pairs C15-C15^b, C80-C114^b, C79-C112^b, C44-C48^a (designed binder)
chain: B17 chain with S25K, W32H, I33A, T59D, L67K
modifications: disulfides C15-C15 (inter), C80-C114 (inter), C79-C112 (inter), C44-C48 (intra)
notes: as for B2

Kd [2]: 29.3 nM
Kd [3]: 29.3 nM
B20: SEQ ID NO: 324, cysteine pairs C79-C80^a (designed binder)
chain: B17 chain with S25K, W32H, I33A, T59D, L67K
modifications: disulfides C79-C80 (intra)

Kd [10]: 49.3 nM
B21: Clone No. 27 domain (ActRIIBecd-associated polypeptide) (peptide)
chain: TYPASPKPMRWKMRSCACCAGGLRNRTGTV

— patent US20190071480A1 (Biogen, published 2019)
